Tests used:
[1] = molecular target: CEA (carcinoembryonic antigen) (UniProt P06731); assay: specificity/enzyme activity assay, CEA-coated plate, substrate in 0.2 M sodium acetate buffer + 0.01% BSA pH 5; supernatant diluted 1:4
GIT mucin [2] = assay: specificity/enzyme activity assay, GIT mucin-coated plate (negative control), substrate in PBS pH 7.2; supernatant diluted 1:16
[3] = molecular target: CEA (carcinoembryonic antigen) (UniProt P06731); assay: specificity/enzyme activity assay, CEA-coated plate, substrate in PBS pH 7.2; supernatant diluted 1:64
[4] = molecular target: CEA (carcinoembryonic antigen) (UniProt P06731); assay: specificity/enzyme activity assay, CEA-coated plate, substrate in 0.2 M sodium acetate buffer + 0.01% BSA pH 5; supernatant concentrated
GIT mucin [5] = assay: specificity/enzyme activity assay, GIT mucin-coated plate (negative control), substrate in PBS pH 7.2; supernatant diluted 1:128
GIT mucin [6] = assay: specificity/enzyme activity assay, GIT mucin-coated plate (negative control), substrate in PBS pH 7.2; supernatant diluted 1:64
[7] = molecular target: CEA (carcinoembryonic antigen) (UniProt P06731); assay: specificity/enzyme activity assay, CEA-coated plate, substrate in PBS pH 7.2; supernatant diluted 1:2
GIT mucin [8] = assay: specificity/enzyme activity assay, GIT mucin-coated plate (negative control), substrate in PBS pH 7.2; supernatant diluted 1:8
[9] = molecular target: CEA (carcinoembryonic antigen) (UniProt P06731); assay: specificity/enzyme activity assay, CEA-coated plate, substrate in PBS pH 7.2; supernatant diluted 1:128
[10] = molecular target: CEA (carcinoembryonic antigen) (UniProt P06731); assay: specificity/enzyme activity assay, CEA-coated plate, substrate in 0.2 M sodium acetate buffer + 0.01% BSA pH 5; supernatant diluted 1:2
[11] = molecular target: CEA (carcinoembryonic antigen) (UniProt P06731); assay: specificity/enzyme activity assay, CEA-coated plate, substrate in PBS pH 7.2; supernatant diluted 1:4
[12] = molecular target: CEA (carcinoembryonic antigen) (UniProt P06731); assay: specificity/enzyme activity assay, CEA-coated plate, substrate in PBS pH 7.2; supernatant concentrated
[13] = molecular target: CEA (carcinoembryonic antigen) (UniProt P06731); assay: specificity/enzyme activity assay, CEA-coated plate, substrate in PBS pH 7.2; supernatant diluted 1:8
GIT mucin [14] = assay: specificity/enzyme activity assay, GIT mucin-coated plate (negative control), substrate in PBS pH 7.2; supernatant diluted 1:2
[15] = molecular target: CEA (carcinoembryonic antigen) (UniProt P06731); assay: competitive ELISA on CEA-coated plates; competitor murine MAb BW 431/26 at 5 ng/ml, detected with goat anti-mouse Ig-alkaline phosphatase
[16] = molecular target: CEA (carcinoembryonic antigen) (UniProt P06731); assay: specificity/enzyme activity assay, CEA-coated plate, substrate in 0.2 M sodium acetate buffer + 0.01% BSA pH 5; supernatant diluted 1:8
[17] = molecular target: CEA (carcinoembryonic antigen) (UniProt P06731); assay: specificity/enzyme activity assay, CEA-coated plate, substrate in PBS pH 7.2; supernatant diluted 1:32
[18] = molecular target: CEA (carcinoembryonic antigen) (UniProt P06731); assay: specificity/enzyme activity assay, CEA-coated plate, substrate in 0.2 M sodium acetate buffer + 0.01% BSA pH 5; supernatant diluted 1:64
[19] = molecular target: CEA (carcinoembryonic antigen) (UniProt P06731); assay: specificity/enzyme activity assay, CEA-coated plate, substrate in 0.2 M sodium acetate buffer + 0.01% BSA pH 5; supernatant diluted 1:16
GIT mucin [20] = assay: specificity/enzyme activity assay, GIT mucin-coated plate (negative control), substrate in PBS pH 7.2; supernatant concentrated
[21] = molecular target: CEA (carcinoembryonic antigen) (UniProt P06731); assay: specificity/enzyme activity assay, CEA-coated plate, substrate in 0.2 M sodium acetate buffer + 0.01% BSA pH 5; supernatant diluted 1:32
GIT mucin [22] = assay: specificity/enzyme activity assay, GIT mucin-coated plate (negative control), substrate in PBS pH 7.2; supernatant diluted 1:4
[23] = molecular target: CEA (carcinoembryonic antigen) (UniProt P06731); assay: specificity/enzyme activity assay, CEA-coated plate, substrate in PBS pH 7.2; supernatant diluted 1:16
GIT mucin [24] = assay: specificity/enzyme activity assay, GIT mucin-coated plate (negative control), substrate in PBS pH 7.2; supernatant diluted 1:32
[25] = molecular target: CEA (carcinoembryonic antigen) (UniProt P06731); assay: specificity/enzyme activity assay, CEA-coated plate, substrate in 0.2 M sodium acetate buffer + 0.01% BSA pH 5; supernatant diluted 1:128

Sequence of UniProt P06731 (P06731 35-685 limits assumed): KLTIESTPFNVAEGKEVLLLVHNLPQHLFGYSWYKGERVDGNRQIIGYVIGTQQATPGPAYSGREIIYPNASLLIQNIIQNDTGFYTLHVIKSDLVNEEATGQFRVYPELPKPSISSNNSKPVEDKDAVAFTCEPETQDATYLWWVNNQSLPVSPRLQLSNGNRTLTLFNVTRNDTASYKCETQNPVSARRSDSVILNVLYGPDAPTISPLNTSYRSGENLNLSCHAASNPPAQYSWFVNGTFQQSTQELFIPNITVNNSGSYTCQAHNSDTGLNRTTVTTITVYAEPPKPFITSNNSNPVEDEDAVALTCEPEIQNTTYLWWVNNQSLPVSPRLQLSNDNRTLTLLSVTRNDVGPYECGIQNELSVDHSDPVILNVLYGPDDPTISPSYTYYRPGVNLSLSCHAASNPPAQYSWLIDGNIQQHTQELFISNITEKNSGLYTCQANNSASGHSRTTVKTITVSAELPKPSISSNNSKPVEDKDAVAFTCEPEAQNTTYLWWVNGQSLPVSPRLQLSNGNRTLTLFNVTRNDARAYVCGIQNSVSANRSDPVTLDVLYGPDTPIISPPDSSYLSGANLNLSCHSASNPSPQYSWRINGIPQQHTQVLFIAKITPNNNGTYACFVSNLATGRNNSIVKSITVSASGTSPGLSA

Substance: 431/26 hum VH huβGlc 1H fusion protein (from UniProt P01860 1-98; P01860 99-115; P08236 23-651)
- fluorescence of 4-methylumbelliferol liberated by plate-bound fusion protein [1]: 4660
- fluorescence of 4-methylumbelliferol liberated by plate-bound fusion protein (GIT mucin [2]): 53.7
- fluorescence of 4-methylumbelliferol liberated by plate-bound fusion protein [3]: 99.3
- fluorescence of 4-methylumbelliferol liberated by plate-bound fusion protein [4]: 9120
- fluorescence of 4-methylumbelliferol liberated by plate-bound fusion protein (GIT mucin [5]): 47.5
- fluorescence of 4-methylumbelliferol liberated by plate-bound fusion protein (GIT mucin [6]): 48.2
- fluorescence of 4-methylumbelliferol liberated by plate-bound fusion protein [7]: 2140
- fluorescence of 4-methylumbelliferol liberated by plate-bound fusion protein (GIT mucin [8]): 60.7
- fluorescence of 4-methylumbelliferol liberated by plate-bound fusion protein [9]: 57.9
- fluorescence of 4-methylumbelliferol liberated by plate-bound fusion protein [10]: 7680
- fluorescence of 4-methylumbelliferol liberated by plate-bound fusion protein [11]: 1200
- fluorescence of 4-methylumbelliferol liberated by plate-bound fusion protein [12]: 2720
- fluorescence of 4-methylumbelliferol liberated by plate-bound fusion protein [13]: 618
- fluorescence of 4-methylumbelliferol liberated by plate-bound fusion protein (GIT mucin [14]): 93.4
- molar excess of competitor at 50% inhibition [15]: 200 molar excess
- fluorescence of 4-methylumbelliferol liberated by plate-bound fusion protein [16]: 2930
- fluorescence of 4-methylumbelliferol liberated by plate-bound fusion protein [17]: 168
- fluorescence of 4-methylumbelliferol liberated by plate-bound fusion protein [18]: 425
- fluorescence of 4-methylumbelliferol liberated by plate-bound fusion protein [19]: 1660
- fluorescence of 4-methylumbelliferol liberated by plate-bound fusion protein (GIT mucin [20]): 116
- fluorescence of 4-methylumbelliferol liberated by plate-bound fusion protein [21]: 853
- fluorescence of 4-methylumbelliferol liberated by plate-bound fusion protein (GIT mucin [22]): 73.4
- fluorescence of 4-methylumbelliferol liberated by plate-bound fusion protein [23]: 332
- fluorescence of 4-methylumbelliferol liberated by plate-bound fusion protein (GIT mucin [24]): 40.4
- fluorescence of 4-methylumbelliferol liberated by plate-bound fusion protein [25]: 192

Substance: humanized MAb BW 431/26 (antibody)
- molar excess of competitor at 50% inhibition [15]: 200 molar excess

From patent US20030064482A1
